“And” between values parts separate entries of the source, which are not always exact repeats. Equal entries are not always repeated.
Tests used:
[1] = target: Escherichia coli heat-stable enterotoxin A (STa), purified from a bovine ETEC K99+ isolate (Escherichia coli (ETEC isolated from a diarrheic neonatal calf))
[2] = target: Escherichia coli heat-stable enterotoxin A (STa), purified from a bovine ETEC K99+ isolate (Escherichia coli (ETEC isolated from a diarrheic neonatal calf)); assay: STa-binding indirect ELISA, end titer
[3] = target: Escherichia coli heat-stable enterotoxin A (STa), purified from a bovine ETEC K99+ isolate (Escherichia coli (ETEC isolated from a diarrheic neonatal calf)); assay: avidity ELISA on plate-bound STa, 5 M ammonium thiocyanate, Baseline
[4] = target: Escherichia coli heat-stable enterotoxin A (STa), purified from a bovine ETEC K99+ isolate (Escherichia coli (ETEC isolated from a diarrheic neonatal calf)); assay: indirect ELISA on plate-bound STa, serum dilution 10^-3, pre-immunization serum
[5] = target: Escherichia coli heat-stable enterotoxin A (STa), purified from a bovine ETEC K99+ isolate (Escherichia coli (ETEC isolated from a diarrheic neonatal calf)); assay: indirect ELISA on plate-bound STa, serum dilution 10^-5, pre-immunization serum
[6] = target: Escherichia coli heat-stable enterotoxin A (STa), purified from a bovine ETEC K99+ isolate (Escherichia coli (ETEC isolated from a diarrheic neonatal calf)); assay: indirect ELISA on plate-bound STa, serum dilution 10^-4, pre-immunization serum
[7] = target: Escherichia coli heat-stable enterotoxin A (STa), purified from a bovine ETEC K99+ isolate (Escherichia coli (ETEC isolated from a diarrheic neonatal calf)); assay: indirect ELISA on plate-bound STa, serum dilution 10^-6, pre-immunization serum

**Q.** Which results are given for “baseline (pre-immunization) rabbit serum (antibody)”?
**A.** Avidity Index (%) [1]: 4.7% and 3% and 0%; ELISA Titer (reciprocal serum dilution) [2]: 0; OD at 405 nm with 5 M ammonium thiocyanate [3]: 0.017 OD and 0.043 OD and 0.04 OD; mean OD (405 nm) [4]: 0.864 OD; mean OD (405 nm) [5]: 0.033 OD; mean OD (405 nm) [6]: 0.232 OD; mean OD (405 nm) [7]: 0.039 OD

— patent publication US8728478
